The record followed here is patent publication US20250282868A1 (ITEOS BELGIUM, published 2025).

Residue numbers refer to the chain shown, from its start.

Assay [1] concerns the target T1, human TREM2 (human, UniProt Q9NZC2 19-230).
T1 construct: on THP-1 WT cells and M2a-like macrophages (endogenous) and on CHO or HEK293T cells overexpressing human TREM2 with DAP12; also called hTREM2
T1 sequence: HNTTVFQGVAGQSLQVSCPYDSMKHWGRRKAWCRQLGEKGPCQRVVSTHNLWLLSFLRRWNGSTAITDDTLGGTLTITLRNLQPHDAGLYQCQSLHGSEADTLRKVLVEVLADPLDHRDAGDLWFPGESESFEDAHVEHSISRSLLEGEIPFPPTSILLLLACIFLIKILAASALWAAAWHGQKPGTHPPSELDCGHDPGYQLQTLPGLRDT
Put plainly: flow cytometry, THP-1 WT vs THP-1 TREM2 KO cells, 10 ug/ml. On the technique in general: A flow cytometer gives signals particle by particle.

The target of assay [2] is T1, human TREM2. Put plainly: cell-based or functional assay.
Assay [3] deals with T1, human TREM2. Put plainly: flow cytometry, competition with LDL-Alexafluor-488 on CHO cells overexpressing human TREM2/DAP12; only 1 value generated. How it is done:
(§1) Exemplary anti-TREM2 antibodies were tested in order to characterize their ability to enter in competition with TREM2 ligand, LDL, on CHO overexpressing human TREM2/DAP12. Antibodies (dose response curves from 66.65 nM to 0.07 nM) were incubated for 30 min with cells in a soluble fashion, followed by an incubation with LDL coupled with Alexafluor-488 (at 1 μg/mL final) for 30 min. Finally, after 2 washes, cells were acquired on flow cytometer. The median MFI of Alexafluor-488 was used to plot the graphs. Benchmark antibody MOR044746 was used as positive control.

The target in assay [4] is T1, human TREM2. The assay can be described thus: flow cytometry, THP-1 WT cells, 10 ug/ml.
The target in assay [5] is T2, cynomolgus TREM2 (cynomolgus, UniProt A0A2K5UY34 49-260).
T2 construct: also called cynoTREM2; cTREM2
T2 sequence: T1 sequence with A10E, W60R, L89F, F125V, I157V, L193P, Y201H
Put plainly: MFI on CHO cells over-expressing cynoTREM2-DAP12. How it is done:
(§2) Cross-reactivity of anti-TREM2 antibodies to cynomolgus TREM2 (cynoTREM2) was assessed using CHO over-expressing cynoTREM2-DAP12 (Table 22). Benchmark antibodies, AB52 and PN-37012, were examined for comparison.

Assay [6] concerns the target T1, human TREM2. The assay can be described thus: cell-based or functional assay. The source holds these as a separate data set.
Assay [7] concerns the target T2, cynomolgus TREM2. Put plainly: MFI on CHO cells over-expressing cynoTREM2-DAP12 vs CHO empty vector. On the procedure:
as §2

The target of assay [8] is T1, human TREM2. The assay can be described thus: flow cytometry, M2a-like macrophages.
Assay [9] concerns the target T3, mouse TREM2 (mouse, UniProt Q99NH8 19-227).
T3 construct: whole, on cells
T3 sequence (looked up): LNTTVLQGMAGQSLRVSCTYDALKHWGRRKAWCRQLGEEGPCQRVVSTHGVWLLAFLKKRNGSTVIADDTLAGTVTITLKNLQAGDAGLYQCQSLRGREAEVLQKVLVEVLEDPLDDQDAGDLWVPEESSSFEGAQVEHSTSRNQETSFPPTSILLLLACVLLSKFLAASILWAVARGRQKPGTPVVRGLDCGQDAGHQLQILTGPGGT
Put plainly: MFI on CT26 cells over-expressing mouse TREM2 and DAP12 vs CT26 empty vector.

In assay [10] the target is T3, mouse TREM2. The assay can be described thus: MFI on CT26 cells over-expressing mouse TREM2 and DAP12.
Assay [11] concerns the target T1, human TREM2. Put plainly: flow cytometry, M2a-like macrophages, dose-response.
The target in assay [12] is T1, human TREM2. Put plainly: flow cytometry, competition with LDL-Alexafluor-488 on CHO cells overexpressing human TREM2/DAP12; positive control. On the procedure: as §1

B1: EOS006175 (antibody, V domains shown)
VH: QVQLQESGPGLVKPSGTLSLTCAVSGGSISSSNWWSWVRQPPGKGLEWIGEIYHSGSTNYNPSLKSRVTISVDKSKNQFSLKLSSVTAADTAVYYCARDTKYWGGMDVWGQGTTVTVSS
VL: DIQMTQSPSSLSASVGDRVTITCQASQDISNYLNWYQQKPGKAPKLLIYDASNLATGVPSRFSGSGSGTDFTFTISSLQPEDIATYYCQQYVEAPTFGGGTKVEIK
Turning to B1, in assay [1], the “MFI Fold change (THP-1 WT over THP-1 TREM2 KO)” value amounted to 5.8 fold. Besides, the “Stabilization ratio (Mean of 2 replicates)” value in [2] stood at 0.39 ratio. Moreover, the IC50 in assay [3] came out at 0.28 nM. Besides, the “Fold over isotype control THP1 WT” value in [4] worked out at 5.5 fold. Besides, the “Binding to CHO-cTREM2 MFI” value in assay [5] came out at 10200 MFI. Also, the “Fold over isotype control at 66 nM” value in [6] turned out to be 0.757 fold. Further, in assay [7], the “MFI Fold change (CHO-cTREM2 over CHO-EV)” value was 233 fold. The same molecule displayed a Fold over isotype in [8] of 5.8 fold. The “MFI Fold change (CT26-TREM2 over CT26-EV)” value in [9] worked out at 3.9 fold. Also, in assay [10], the “Binding to CT26-TREM2 MFI” value was found to be 1390 MFI. This molecule showed a dissociation constant (Kd) in assay [11] of 1.06 nM.

B2: MOR044746 (antibody, V domains shown)
VH: QVQLQQSGPGLVKPSQTLSLTCAISGDSVSSSSAAWNWIRQSPSRGLEWLGHIGYRSKWYNEYAVSVKSRITINPDTSKNQFSLQLNSVTPEDTAVYYCARGMYGSVPYKEGYYFDIWGQGTLVTVSS
VL: DIQMTQSPSSLSASVGDRVTITCRASQGISSDLNWYQQKPGKAPKLLIYAASNLQSGVPSRFSGSGSGTDFTLTISSLQPEDFATYYCQQYTDESMTFGQGTKVEIK
notes: benchmark anti-TREM2 antibody from WO2020079580
In turn, B2 yielded an IC50 in assay [12] of 0.395 nM.

A word on the IC50: it is the point on the concentration scale where inhibition reaches its midpoint. Usually Kd stands for the concentration at which binding is half-saturated. High values mean weaker binding, low ones tighter binding.
